For experiment [1], the target named is T1, recombinant human IL-23 (human, UniProt Q9NPF7 20-189; P29460 23-328).
T1 construct: also called rhuIL-23; recombinant human (rhu) IL-23
T1 sequence 1: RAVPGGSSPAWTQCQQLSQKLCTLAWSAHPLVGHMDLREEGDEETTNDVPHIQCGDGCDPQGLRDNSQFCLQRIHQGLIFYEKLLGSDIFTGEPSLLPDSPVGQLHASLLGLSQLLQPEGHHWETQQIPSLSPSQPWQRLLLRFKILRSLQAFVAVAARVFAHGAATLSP
T1 sequence 2: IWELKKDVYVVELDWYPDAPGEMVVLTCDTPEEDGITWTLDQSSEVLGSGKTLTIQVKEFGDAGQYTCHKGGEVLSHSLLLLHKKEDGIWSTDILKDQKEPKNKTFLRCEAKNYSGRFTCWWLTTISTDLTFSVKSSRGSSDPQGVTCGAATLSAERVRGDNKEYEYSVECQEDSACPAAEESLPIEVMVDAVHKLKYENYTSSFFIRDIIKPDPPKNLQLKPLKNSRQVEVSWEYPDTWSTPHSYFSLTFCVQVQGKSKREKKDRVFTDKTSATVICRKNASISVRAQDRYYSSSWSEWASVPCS
The experiment can be described thus: KinExA, solution equilibrium, rhuIL-23-coated beads.
Description: Normal human serum (NHS)-activated Sepharose 4 fast flow beads (Amersham Biosciences, part of GE Healthcare, Uppsala, Sweden), are pre-coated with rhuIL-23 and blocked with 1 m Tris buffer with 10 mg/mL BSA. 50 pM of IL-23 antibody is incubated with rhuIL-23 (12 points of 1:2 dilutions starting from 800 pM) at room temperature for 72 hours before it is run through the rhuIL-23-coated Sepharose beads. The amount of the bead-bound antibody was quantified by fluorescent (Cy5) labeled goat anti-human-Fc antibody (Jackson Immuno Research, West Grove, Pa.). The binding signal is proportional to the amount of free antibody at equilibrium.

Experiment [2] addresses T1, recombinant human IL-23. The experiment can be described thus: KinExA. For orientation: Kinetic exclusion samples the free partner from a solution-phase mixture.
Experiment [3] concerns the target T1, recombinant human IL-23. Nature of the experiment: cell-based or functional assay.
Experiment [4] deals with T2, recombinant cynomolgous IL-23 (cynomolgous).
T2 chain 1: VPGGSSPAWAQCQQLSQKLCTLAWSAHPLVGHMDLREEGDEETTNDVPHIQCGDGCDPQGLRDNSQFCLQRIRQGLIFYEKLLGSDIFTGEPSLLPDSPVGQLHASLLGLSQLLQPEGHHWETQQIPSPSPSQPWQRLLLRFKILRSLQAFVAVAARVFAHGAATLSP
T2 chain 2: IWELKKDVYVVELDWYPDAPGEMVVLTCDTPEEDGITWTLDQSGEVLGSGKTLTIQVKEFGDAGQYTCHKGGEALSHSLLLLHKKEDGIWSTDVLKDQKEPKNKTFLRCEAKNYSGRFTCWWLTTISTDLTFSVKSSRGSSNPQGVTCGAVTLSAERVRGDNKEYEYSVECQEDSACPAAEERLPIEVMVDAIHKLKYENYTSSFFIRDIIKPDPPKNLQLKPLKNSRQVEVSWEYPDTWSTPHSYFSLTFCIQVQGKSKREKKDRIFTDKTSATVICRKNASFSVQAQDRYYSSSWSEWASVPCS
Nature of the experiment: cell-based or functional assay.

For experiment [5], the target named is T3, Native human IL-23 (human, UniProt Q9NPF7 20-189; P29460 23-328).
T3 sequence 1: T1 sequence 1
T3 sequence 2: T1 sequence 2
The experiment can be described thus: cell-based or functional assay.

Experiment [6] addresses T1, recombinant human IL-23. Nature of the experiment: cell-based or functional assay. The source holds these as a separate data set.
Experiment [7] has as its target T2, recombinant cynomolgous IL-23. The experiment can be described thus: cell-based or functional assay.
Experiment [8] addresses T1, recombinant human IL-23. The experiment can be described thus: cell-based or functional assay. The source holds these as a separate data set.
For experiment [9], the target named is T2, recombinant cynomolgous IL-23. Nature of the experiment: cell-based or functional assay.
Experiment [10] concerns the target T3, Native human IL-23. Nature of the experiment: cell-based or functional assay. This is another data set of the same source.
For experiment [11], the target named is T1, recombinant human IL-23. Nature of the experiment: KinExA, derived from KD=Koff/Kon.
The target in experiment [12] is T1, recombinant human IL-23. The experiment can be described thus: cell-based or functional assay. This is another data set of the same source.
Experiment [13] deals with T2, recombinant cynomolgous IL-23. The experiment can be described thus: cell-based or functional assay.

Positions count from the first letter of the chain named.

B1: Antibody G (antibody, V domains shown)
VH: QVQLQESGPRLVKPSETLSLTCTVSGDSISSYFWSWIRQPPGKGLEWLGYIYYSGSTNYNPSLKSRVTISIDTSKNQFSLKLSSVTAADTAVYYCTRDRGSYYGSDYWGQGTLVTVSS
VL: DIQMTQSPSSVSASVGDRVTITCRAGQVISSWLAWYQQKPGKAPKLLIYAASSLQSGVPSRFSGSGSGTDFTLTISSLQPDDFATYYCQQATSFPLTFGGGTKVEIK
notes: also called VH12/VL12
Broadly, the Kd is the concentration at which binding is half-saturated. A word on the kon: it is the second-order rate constant of association. As a reminder, the koff is the rate constant with which the complex falls apart. As to B1, the Kd with recombinant human IL-23 [1] came to 2 pM. For the same molecule, the association rate constant (kon) with recombinant human IL-23 [2] was found to be 400000 M⁻¹ s⁻¹. For the same molecule, the “IC50 (pM), NK cell assay (IFNγ)” value turned out to be 45 pM in the experiment with recombinant human IL-23 [3], 23 pM in experiment [4] and 152 pM with Native human IL-23 [5]. Further, the “IC50 (pM), IL-22 human whole blood assay” value in the experiment with recombinant human IL-23 [6] was determined as 83 pM; in [7], 66 pM. Moreover, the “IC50 (pM), STAT-luciferase assay” value is 296 pM with recombinant human IL-23 [8], 421 pM in [9] and 156 pM with Native human IL-23 [10]. The off-rate (koff) with recombinant human IL-23 [11] came out at 8.1e-07 s⁻¹. For the same molecule, the figures for the “IC50 (pM), IFNγ human whole blood assay” value (in the experiment with recombinant human IL-23 [12]; in experiment [13]) were 53 pM and 93 pM, respectively.

B2: Antibody B (antibody, V domains shown)
VH: QVQLQESGPGLVKPSQTLSLTCTVSGGSISSGGYYWSWIRQHPGKGLEWIGHIHYSGNTYYNPSLKSRVTISVDTSKNQFSLKLSSVTAADTAVYYCAKNRGFYYGMDVWGQGTTVTVSS
VL: B1 VL with G26S, K45S, G66V, D81E, T92N, L96F, G100P, E105D, I106F
notes: also called VH9/VL9
As for B2, the Kd with recombinant human IL-23 [1] worked out at 3.99 pM. Further, the on-rate (kon) with recombinant human IL-23 [2] amounted to 1.17e+06 M⁻¹ s⁻¹. Also, the “IC50 (pM), NK cell assay (IFNγ)” value with recombinant human IL-23 [3] turned out to be 48 pM; in experiment [4], 19 pM; in the experiment with Native human IL-23 [5] it was 85 pM. Also, the “IC50 (pM), IL-22 human whole blood assay” value worked out at 117 pM with recombinant human IL-23 [6] and 113 pM in [7]. In addition, the “IC50 (pM), STAT-luciferase assay” value with recombinant human IL-23 [8] amounted to 100 pM; in experiment [9], 130 pM; with Native human IL-23 [10], 45 pM. Further, the off-rate (koff) in the experiment with recombinant human IL-23 [11] amounted to 4.7e-06 s⁻¹. Also, the “IC50 (pM), IFNγ human whole blood assay” value with recombinant human IL-23 [12] is 117 pM; in [13], 161 pM.

Values taken from US20200181255A1 (Amgen, published 2020).
